Target: TGFβ1 (Homo sapiens) (UniProt P01137)
Assay: filter
Conditions: 2'-F pyrimidines, 3' fixed sequence removed

TGFβ1 (Homo sapiens), sequence (P01137 279-390): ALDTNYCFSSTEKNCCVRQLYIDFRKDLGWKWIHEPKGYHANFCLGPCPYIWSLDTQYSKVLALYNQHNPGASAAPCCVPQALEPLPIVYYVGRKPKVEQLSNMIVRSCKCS

Sequence | Kd (plateau 15%) [nM] | other results
GGGAGANCUGGUAAUUUUGGUUUANCCGUAUNCCCAGACGACUCGCCCGA [30NtruNc 32] | 22 | –
GGGAGGGUUAACCGUUAAGACGGCGUNAUUUUGUCCCCAGACGACUCGCCCGA [30NtruNc 7] | – | Kd (plateau 25%): 2 nM
GGGAGAGGGGUCUGGAAUUUUUGGNUUACCCGUACGCCAGACGACUCGCCCGA [30NtruNc 9] | – | Kd (plateau 20%): 0.1 nM
GGGAGCGGAAUUUUUGUGUAGACGUAUGCCGCUUUGNCCAGACGACUCGCCCGA [30NtruNc 37] | 0.083 | –

Source: patent publication US20030003461
